Experimental findings from ChEMBL document CHEMBL5046279, “Discovery of a Partial Glucokinase Activator Clinical Candidate: Diethyl ((3-(3-((5-(Azetidine-1-carbonyl)pyrazin-2-yl)oxy)-5-isopropoxybenzamido)-1H-pyrazol-1-yl)methyl)phosphonate (BMS-820132)” (J Med Chem, 2022) are described below.

Substrate in this series: CCOP(=O)(Cc1csc(NC(=O)c2cc(Oc3ccc(S(C)(=O)=O)cc3)cc(O[C@@H](C)COC)c2)n1)OCC
Particulars: Homo sapiens; filed as activator.

Description: Activation of human glucokinase assessed as decrease in glucose Km

B1: Hexokinase-4 (Homo sapiens), P35557 (protein)
chain: MLDDRARMEAAKKEKVEQILAEFQLQEEDLKKVMRRMQKEMDRGLRLETHEEASVKMLPTYVRSTPEGSEVGDFLSLDLGGTNFRVMLVKVGEGEEGQWSVKTKHQMYSIPEDAMTGTAEMLFDYISECISDFLDKHQMKHKKLPLGFTFSFPVRHEDIDKGILLNWTKGFKASGAEGNNVVGLLRDAIKRRGDFEMDVVAMVNDTVATMISCYYEDHQCEVGMIVGTGCNACYMEEMQNVELVEGDEGRMCVNTEWGAFGDSGELDEFLLEYDRLVDESSANPGQQLYEKLIGGKYMGELVRLVLLRLVDENLLFHGEASEQLRTRGAFETRFVSQVESDTGDRKQIYNILSTLGLRPSTTDCDIVRRACESVSTRAAHMCSAGLAGVINRMRESRSEDVMRITVGVDGSVYKLHPSFKERFHASVRRLTPSCEITFIESEEGSGRGAALVSAVACKKACMLGQ
For B1, the Km stood at 2400 µM.
